# Assay results as given in the nanobody polyreactivity screen of Harvey et al. (2022).
# Experiment: yeast display, Sf9 membrane polyspecificity reagent, FACS + sequencing; frameworks hold sequencing errors
# Procedure, shortened: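 A nanobody's polyreactivity label depends on the gate it was sorted from. Yeast display cells were stained with 10% biotinylated, detergent-solubilized Sf9 membrane reagent for 1 hour at 4 °C, enriched on streptavidin microbeads and sorted by FACS. The low and high (top ~1%) gates were set on anti-HA fluorescence for expression and streptavidin fluorescence for reagent binding.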
row,Sequence,polyreactivity (PSR sort gate)
1,QVQLVESGGGLVQAGGSLRLSCAASGSIFGENAMGWYRQAPGKERELVAAITSGGSTDYADSVKGRFTISRDNAKNTVYLQMNSLKPEDTAVYYCAASGRVGPGYWYDSWGQGTQVTVSS,low polyreactivity
2,QVQLVESGGGLVQAGGSLRLSCAASGSIFSVYARGWSRQAPGKERELVAAITSGTSTYADSVKGRFTISRDNAKNTVYLQMNSLKPEDTAVYACAAESGSPGYYYWGQGTQVTVSS,low polyreactivity
3,QVQLVESGGGLVQAGGSLRLSCAASGSIFASNAMGWYRQAPGKERELVAAISTSGGSTYYADSVKGRFTISRDNAKNTVYLQMNSLKPEDTAVYYCAKLLARGFRIWQDYDYWGQGTQVTVSS,low polyreactivity
4,QVQLVESGGGLVQAGGSLRLSCAASGITFTYNAMGWYRQAPGKERELVASITLSGGNTYYADSVTGRFTISRDNAKNTVYLQMNSLKPEDTAVYYCAADDRGSSYGHFTVEYGYWGQGTQVTVSS,low polyreactivity
5,QVQLVESGGGLVQAGGSLRLSCAASGRTFTSYVMGWYRQAPGKERELVAAISWSGDSTYYADSVKGRFTISRDNAKNTVYLQMNSLKPEDTAVDYCARVPPAAYVAYDYWGQGTQVTVSS,high polyreactivity
6,QVQLVESGGGLVQAGGSLRLSCAASGTIYDGYAMGWYRQAPGKERELVAAINTSGGTTYYADSENGRFTISRDKAKNNGYLQMNSLKPEETAVYYCNAHNHLPPYDYWGQGSQVTVSS,low polyreactivity
7,QVQLVESGGRLVQAGGSLRLSCAASGSTFPLYARGWCRQAPGKERELVAAITGGGGRTYYADSVKGRFTISRDNAKNTVYLQMNSLKPEDTGVYYCNAVVYLTNYWYDYWGQGTQVTVSS,low polyreactivity
8,QVQLVESGGGLVQAGGSLRLSCAASGITFSVYTMGWYRQAPGKERELVAAIDSDGITNYADSVKGRFTISRDNAKNNVYLQMNSLKPEDTAVYYCAKQSGRADGVSGFDYWGQGTQVTVSS,low polyreactivity
9,QVQLVESGGGLVQAGGSLRLSCAASGITFAFYDKGWYRQPPGKERELVAAISYSGGGTYYADSVKGRFTISRDNAKNNVYLQMNSLKPEDTAVYYCAADPKTHPLFGEDYWGQGTQVTVSS,low polyreactivity
10,QVHLVESGGGLVQAGGSLRLSCAASGFTFRYYAMGSYRQAPGKERELVASIRRIGGSTYYADSVKGRFTISRDNAKNTVYLQMNSLKPDDTAVYYCAASTNFYYNPEYDSWGQGTQVTVSS,low polyreactivity
11,QVQLVESGGGLVQAGGSLRLSCAASGSTFPQYAMGWYRQAPGKERELVAAISRSGGSTYYADSVKGRFTISRDNAKNTVYLQMNSLKPEDTAVYYCNVKSGFWFYPTMDYWGQGTQVTVSS,high polyreactivity
12,QVQLVESGGGLVQAGGSLRLSCAASGFTFNYYAMGWYRQAPGKERELVAGITRSGVSTNYADSVKGRFTISRDNAKNTVYLQMNSLKPEDTAGYYSAREEGRRYRGWPYVFAPQHDYWGQGTQVTVSS,high polyreactivity
13,QVQLVESGGGLVQAGGSLRLSSAAYGSIFDSNAMGWYRQAPGKERELVAAIRYSGGRTYYADSVKGRFTISRDNAKNTVYLQMNILKPEDTAVYYCAARSKVYKVGYNYWGQGTQVTVSS,high polyreactivity
14,QVQIVESGGGLVQAGGSLRLSCAASGRIFAGYAIGWYRQAPGKERELVAAISSGGSTYYADSVKGRFTISRDNAKNTVYLQMNSLKPEDTAVYYCSAVGRRVYGTKFYYWGQGTQVTFSS,high polyreactivity
15,QVQLVESGGGLVQAGGSLRLSCAASGSIFGIYTMGWYRQAPGKERELVAAINSGGSTNYADSVKGRFTISRDNAKNTVYLQMNSLKPEDTAVYYCNAYIHPPGPRVYSREYDYWGHGTQVTVSS,low polyreactivity
16,QVQLVEAGGGLVQAGGTLRLSCAASGSNFSENTMGWYRPAPGKKRELVADITSGGSTNYADSVKGRFTISRDNAKNTVYLQMNSMKAEVTAVYYCAADYNGEYDYWGQGSQVTVSS,low polyreactivity
17,QVQLVESGGGLVQAGGSLRLSCAASGFIFGSNAMGWYRQAPGKERELVAAISRSGGSTYYADSVKGRFTISRDNAKNTVYLQMNSLKPEDTAVYYCNVDLWPFVYSWWSYDYWGQGTQVTVSS,high polyreactivity
18,QVQLVESGGGLVQAGGRLRLSCAASGFTFGDNAMGWYRQAPGKERELVAAITSSGSTNYADSVKGRFTISRDNAKNTVYLQMNSLKPEDTAVYYCNAEDSVDAPVYKDLGSEYDSWGQGTQVTVSS,low polyreactivity
19,QVQLVESGAGLVQAGGSLRLSCAASGRIFLGNAMGWYRQAPGKERELVAAISRSGVTRYYADSVKGRFTISRYNGKNTVYLQMNSLKPEDTAVYYCAVERYDRFDHYYWVQGTQVTVSS,low polyreactivity
20,QVQLVESGGGLVQAGCSLRLTCAASGFTFYKYAMGWYRQAPGKERELVAAISRRGTSTYYADAVKGRFTISRDNAKNTVYLQMNSLKPEDTAVYYCNRDVSLSAFDYWGQGTQVTVSS,high polyreactivity
21,QVQLVESGGGLVQAGGSLRLSCAASGFIFGRNAMGWYRQAPGKERELVAGISSRGGRTYYADSVKGRFTISRDNAKNTVYLQMNSLKPEDTAVYYCAAAGLTDYVRYDYWGQGTQVTVSS,high polyreactivity
22,QVQLVESGGGLVQAGGRLRLSCAASGLTFAKYSMGWYRQAPGTERELVAAITASGASTYYADSVKGRFTISRDNAKNTVYLQMNSLKPEDTAVYYCAVRRYYNDYWGQGSQVTVSS,low polyreactivity

row,Sequence,polyreactivity (PSR sort gate)
1,QVQLVESGGGLVQAGGILRLSCAASGSTFNDYAMGRYRQAPGKERELVAAISASGSITYYADSVKGRFTISRDIAKNTVNLQMISLKPEDTAVYYCNARGYRGYDYWGQGTQVTVSS,high polyreactivity
2,QVQLGESGGGLVQAGGSLRLSCAASGRTITRNAMGWYRQAPGKERELVAAISYSGGSTYYADSVKGRFTISRDNAKNTVYLQMNSLKPEDTAVYYFNAATSRRSIRYDYWGQGTQVTVSS,high polyreactivity
3,QVQLVESGGGLVQAGGSLRLSCAASGFIFSLYAMGWYRQAPGKERELVAAITRSGGSTYYADSVKGRFTISRDNAKNTVYLQMNSLKPEDTAVYYCAASRGRGGYGFDYWGQGTQVTVSS,high polyreactivity
4,QVQLVESGGGLVQAGGSLRLSCDASGLTFGWNAMGWSRQAPGKERELVAALSYNGVSTHYADTVKGRFTISRDNAKNTVYLQMNSLKPEDTAVYYCAARALTWPYGGTAPRLYNYWGQGTQVTVSS,low polyreactivity
5,QVQLVESGGGLGQAGGRLRLTCAASGFTFRPYDMGWYRQAPGKERELVAVIIGGDSTNYADSVQGRFTISRDNAKNTVYLQMNSLKPEDTAVYYCAADYIDRVGWMDYWGQGTQVTVSS,low polyreactivity
6,QVQLVESGGGLVQAGGSLRLSCAATGRTFYVNAMGWYRQAPGLEREFVARITSGGSTYYADSVKGRFTISPDKAKNTVYVQKNSLKPEDTAVYYCAADYVSLSVFSYCAWYDYWGQGTQVTVSS,low polyreactivity
7,QVQVVESGGGLVQAGGSLRLSCAASGRIFYQNAMGWYRPAPGKERELVADISSGGSTYYADSVKGRFTISRDNAKNTVYLQMNSLKPEDTAVYYCNTPSGPGTVGSYRRIWYGYWGQGTQVTVSS,low polyreactivity
8,QVQLVESGGGLVQAGGSLRLSCAASGSTFWPYAMGWYRQAPGKERELVAAISNGGGTKYADSVKGRFTISRDNAKNTVYLQMNSLKPEDTAVYYCAKTLWTGRAWYDYWGQGTQVTVSS,high polyreactivity
9,QVQLVESGGGIVQAGGSLRLSSAASGSIFYYYAKGWYRQAPGKERELVATINISDGSTYYADSVKGRFTISRDNAKNTVYLQMNSLKPEDTAVYYCAAYYYFLDYDYWGQGTQVTVSS,low polyreactivity
10,QVQLVESGGGLVQAGGSLRLSCAASGSTFRANAMGWYRQAPGKERELVAAITSGGSTNYADSVKGRFTISRDNATNTVYLQMNSLKPEDTAVYYCADESYQEHSFYVYYGYDYWGQGTQVTVSS,low polyreactivity
11,QVQLVESGGGLLQAGGSLRLSCAASGLTFAFYVMGWYRQAPGKERELVAAISASGASTYYADSVKGRFTISRDNAKNTVYLQMNSLKPEDTAVYYCAADYAVYSFTEFNYWGQGTQVTVSS,high polyreactivity
12,QVQLVESGGGLVQAGGSLRLSCAASGRTFSGYAMGWYRQAPGKERELVAAIDRGDGTNYADSVKGRFTISRDNAKNTVYLQMNSLKPEDTAVYYCAADDYWTPFGYWGQGTQVTVSS,low polyreactivity
13,QVQLVESGGGLVQAGGSLRLSCAASGRIFSIYAMGWYRQAPGKERELVADITWTGGGTYYADSVKGRFTISRDNAKNTVYLQMNSLKPEDTAVYYCAADLYRKWWYDYWGQGTQVTVSS,high polyreactivity
14,QVQLVESGGGLVQAGGSLRLSCAASGRTFTQYAMGWYRQAPGKERELVAAISWRGGSTYYADSVKGRFTISRDNAKNTVYLQMNSLKPEDTAVYYCAKRYFRGYPLYDYWGQGTQVTVSS,high polyreactivity
15,QVQLVESGGGLVQAGGSLRLSCAASGRTFGSYVMVWYRQAPGKEREFVAVISGSVGSTYYADSVKGRFTISRDNAKNTVYLQMNSLKPEDTAVYYCARRGIRTSETKQYHQYNYWGQGTQVTVSS,low polyreactivity
16,QVQLVESGGGLVQAGGSLRLSCGASGRIFGYNAMGWYRQARGKERELVAAITTSGGSTYYADSVKGRFTLSRDNEKNTVYFQMNSLKQEDTAVYYCARDSLQVFYPYASDDYWGLGTQVTVSS,low polyreactivity
17,QVQLVESGGGLVQAGGSLRLSCAASVYIFVRNALGWYRQAPGKERELVAAISGSGGSTYYADSVKGRFTISRDNAKNTVSLQMNSLIPEDTAVDYCAADYATVTWRGIAYDYWGQGTQVTVSS,low polyreactivity
18,QVQLVESAAVLVQAGGRLRLSCADSGRIFTDNGMGWYRQAPGKERELVAAISESGGSTYYADSVKGRFTISRDNAKNTVYLQMNSLKPEDTAVYYCAADLYWYGYHYDYWGQGTQVTVSS,low polyreactivity
19,QVQLVESGGGLVQAGGSLRLSCAASGSILTHYAMGRYRPAPGKERELVAAITWRGGSTYYADSVKGRFTISRDNAKNTVYLQMNSLKTEDTAVYYCAADLSYPDWSRYQWDMDYWGQGTQLTVSS,low polyreactivity
20,QVQLVESGGFLDQAGGSLRLSCAASGFTFYYYAMGWYRQAHAKERELVAAITARGVSTYYADSVKGRFTISRDNAKNTVYLQMNRLNPEDTAVYYCAKRRYYYAPAIPGYYYWGQGTKVTVSS,high polyreactivity
21,QVQLVESGGGLVQAGGSLRLSCAASGGIVSINAMGWYRQAPGKERELVAAIRWNSGRTYYADSVKGRFTISRDNAKNTVYIQMNSLKPEDTAVYYCAVRDYISWEDYYWGQGTQVTVSS,high polyreactivity
